PMC12527940, “Conformational plasticity of a BiP–GRP94 chaperone complex” (Nature Structural & Molecular Biology, 2025)
Values joined by “and” are separate entries in the source; they are usually repeats but may differ in a detail not shown here. Equal values may be shown once.

Experiments:
[1] = target: His6-tagged BiP (residues 27–655) (UniProt P20029); assay: pull-down; Ni-NTA pull-down of His6-tagged BiP protein (4 µM) with 4 µM Strep-tagged or untagged GRP94 protein; 60 min at 37 °C, 50 mM HEPES pH 7.5, 50 mM NaCl, 2 mM MgCl2, 50 µM ATP, 3 µM BSA; Coomassie bands quantified
[2] = target: Strep–linker–TEV site–GRP94 (73–802) (UniProt P08113); assay: negative-stain EM; 16 µM BiP and 32 µM HT2 reacted with 32 µM HyT36, 30 min at 37 °C with 50 µM ATP, then 16 µM GRP94 Δ72; GraFix (5–45% glycerol, 0.5% glutaraldehyde), fraction 12; single-particle negative stain, models fitted with Rosetta at 20 Å
BiP-E243K = BiP-E243K (UniProt P20029); assay: pull-down; Ni-NTA pull-down of His6-tagged BiP protein (4 µM) with 4 µM Strep-tagged or untagged GRP94 protein; 60 min at 37 °C, 50 mM HEPES pH 7.5, 50 mM NaCl, 2 mM MgCl2, 50 µM ATP, 3 µM BSA; Coomassie bands quantified
[3] = target: the molecule itself; assay: cross-linking; XL-MS: DSBU crosslinking (4 µM each), high-molecular-weight SDS–PAGE bands digested and analysed by LC–MS/MS, 5% FDR on residue pairs; GRP94 Δ72^noPT samples with 100 µM PU-WS13

GRP94 Δ72^noPT (from UniProt P08113 73-802) (domain or fragment)
percent reduction of GRP94 bound, against GRP94 Δ72 with its tag [1]: 65%

GRP94-K463E (Strep-tagged GRP94 Δ72 interface I mutant) (from UniProt P08113 73-802) (domain or fragment)
percent reduction of GRP94 Δ72 copurified, against the wild-type pair [1]: 85%

GRP94-K467E (Strep-tagged GRP94 Δ72 interface I mutant) (from UniProt P08113 73-802) (domain or fragment)
percent reduction of GRP94 Δ72 copurified, against the wild-type pair [1]: 85%

His6-tagged BiP (residues 27–655) (from UniProt P20029 27-655) (natural protein)
stoichiometry N (BiP per GRP94 dimer) [2]: 1 and 2

Strep-tagged GRP94 Δ72-R116G interface II mutant (from UniProt P08113 73-802) (domain or fragment)
percent decrease of binding, against GRP94 Δ72 [1]: 30%

Strep–linker–TEV site–GRP94 (73–802) (from UniProt P08113 73-802) (domain or fragment)
stoichiometry N [2]: 2 | percent reduction of GRP94 Δ72 copurified, against the wild-type pair (BiP-E243K): 85%

B1: Strep-tagged GRP94 FL (residues 23–802) (natural protein, mouse (cDNA of C2C12 cells), UniProt P08113 23-802, looked up)
chain: DEVDVDGTVEEDLGKSREGSRTDDEVVQREEEAIQLDGLNASQIRELREKSEKFAFQAEVNRMMKLIINSLYKNKEIFLRELISNASDALDKIRLISLTDENALAGNEELTVKIKCDKEKNLLHVTDTGVGMTREELVKNLGTIAKSGTSEFLNKMTEAQEDGQSTSELIGQFGVGFYSAFLVADKVIVTSKHNNDTQHIWESDSNEFSVIADPRGNTLGRGTTITLVLKEEASDYLELDTIKNLVRKYSQFINFPIYVWSSKTETVEEPLEEDEAAKEEKEESDDEAAVEEEEEEKKPKTKKVEKTVWDWELMNDIKPIWQRPSKEVEEDEYKAFYKSFSKESDDPMAYIHFTAEGEVTFKSILFVPTSAPRGLFDEYGSKKSDYIKLYVRRVFITDDFHDMMPKYLNFVKGVVDSDDLPLNVSRETLQQHKLLKVIRKKLVRKTLDMIKKIADEKYNDTFWKEFGTNIKLGVIEDHSNRTRLAKLLRFQSSHHSTDITSLDQYVERMKEKQDKIYFMAGSSRKEAESSPFVERLLKKGYEVIYLTEPVDEYCIQALPEFDGKRFQNVAKEGVKFDESEKTKESREATEKEFEPLLNWMKDKALKDKIEKAVVSQRLTESPCALVASQYGWSGNMERIMKAQAYQTGKDISTNYYASQKKTFEINPRHPLIRDMLRRIKEDEDDKTVMDLAVVLFETATLRSGYLLPDTKAYGDRIERMLRLSLNIDPEAQVEEEPEEEPEDTSEDAEDSEQDEGEEMDAGTEEEEEETEKESTEKDEL
notes: cloned from C2C12 complementary DNA into pET21d; also called Strep–GRP94 FL; FL GRP94 wild-type protein; source: E. coli BL21(DE3), purified (StrepTrap HP, SEC); not shown: Strep, N-terminal, kept
percent less GRP94 pulled down, against GRP94 Δ72 [1]: 75% | binding result [3]: binds
